Experimental data reported in paper PMC9142583, “Structural basis for broad anti-phage immunity by DISARM” (Nature Communications, 2022).

Experiments:
[1] = biological target: T1, DrmA(∆loop) / DrmA(∆TL);DrmB (Serratia sp. SCBI;Serratia sp. SCBI, UniProt A0A979HMQ0;A0A979HMQ1 1-1325;1-619, del181-233|); assay: EMSA; 1 µM protein; EMSA: 150 mM NaCl, 25 mM HEPES pH 7.4, 30 min room temperature, 5 nM DNA; 1.5% agarose, 1x TBE; settings: protein: recombinant;recombinant, tags: none stated;tagged (Ni-NTA purification), copies: 1;1, label: 5'-Cy5 on strand 1
[2] = biological target: T2, DrmA;DrmB (Serratia sp. SCBI;Serratia sp. SCBI, UniProt A0A979HMQ0;A0A979HMQ1 1-1325;1-619, |); assay: as above; settings: protein: recombinant;recombinant, tags: none stated;tagged (Ni-NTA purification), copies: 1;1, label: 5'-Cy5 on strand 1
[3] = biological target: T1, DrmA(∆loop) / DrmA(∆TL);DrmB; assay: EMSA; no dissociation smear; second super-shift at 1 µM or higher; EMSA: 150 mM NaCl, 25 mM HEPES pH 7.4, 30 min room temperature, 5 nM DNA; 1.5% agarose, 1x TBE; settings: protein: recombinant;recombinant; tags: none stated;tagged (Ni-NTA purification); copies: 1;1; label: 5'-Cy5; single strand
[4] = biological target: T2, DrmA;DrmB; assay: EMSA; binding at 1 µM protein or higher; smeared (dissociation); EMSA: 150 mM NaCl, 25 mM HEPES pH 7.4, 30 min room temperature, 5 nM DNA; 1.5% agarose, 1x TBE; settings: protein: recombinant;recombinant; tags: none stated;tagged (Ni-NTA purification); copies: 1;1; label: 5'-Cy5; single strand
[5] = biological target: T2, DrmA;DrmB; assay: cryo-EM; 1 mM ADP; EMSA: 150 mM NaCl, 25 mM HEPES pH 7.4, 30 min room temperature, 5 nM DNA; 1.5% agarose, 1x TBE; settings: protein: recombinant;recombinant; tags: none stated;tagged (Ni-NTA purification); copies: 1;1; label: none; hairpin; 19-bp stem, 5-nt loop, 5' tail 7 nt, 3' tail 21 nt (Methods: 6 and 20)

B1: 3'ovh DNA (75-nt + 5' block) (mixed)
DNA 1: ATTTTGACAGCCCACATGGCTTGATGAGTGGCGCACTCGCCAGCCTGAGCATGGCGAAAACTCCTCCAGTCTGCT
DNA 2: GCCATGTGGGCTGTCAAAAT
B1: binds ([1]; 3' overhang 55 nt); no binding ([2]; 3' overhang 55 nt).

B2: 5'ovh DNA (75-nt + 3' block) (mixed)
DNA 1: B1 DNA 1
DNA 2: AGCAGACTGGAGGAGTTTTC
B2: binds ([1]; 5' overhang 55 nt); binds ([2]; 5' overhang 55 nt).

B3: 75-bp dsDNA (dsDNA)
DNA 1: B1 DNA 1
DNA 2: AGCAGACTGGAGGAGTTTTCGCCATGCTCAGGCTGGCGAGTGCGCCACTCATCAAGCCATGTGGGCTGTCAAAAT
B3: binds ([1]; blunt); no binding ([2]; blunt).

B4: 75-nt Cy5 ssDNA (ssDNA)
DNA: B1 DNA 1
B4: binds [3]; binds [4].

B5: DNA stem loop (forked hairpin) (structured_DNA)
DNA: TTTTTTTCATCGATGAGCACTGCTATTCCCTAGCAGTGCTCATCGATGATTTTCATCGATGAGCGGTTTT
modifications: none (unmethylated)
B5: binds [5].
